Laboratory results taken from US5731183.
Each block holds one molecule with its values, some of them ahead of it.

How the values were obtained:
dimethylcasein [1] = target: dimethylcasein
dimethylcasein [2] = target: dimethylcasein; remark: listed apart in the source
dimethylcasein [3] = target: dimethylcasein; remark: listed apart in the source

TG activity (dpm) (14C-putrescine caught by dimethylcasein) (dimethylcasein [1]): 496 dpm
Molecule: fused protein of an 11-residue lacZ-derived peptide and the Bacillus-derived TG, expressed from pBSTG75-11 in Escherichia coli JM109 (enzyme)

Relative Activity (14C-putrescine bonded to dimethylcasein, 37° C., 30 minutes) (relative activity) (dimethylcasein [2]): 10200
Molecule: Bacillus subtilis AJ12866-derived transglutaminase (enzyme)

relative TG activity (14C-putrescine bonded to dimethylcasein, 37° C., pH 7.5) (dpm/mg/30 min) (dimethylcasein [3]): 25000
B1: Bacillus subtilis AJ1307-derived transglutaminase (enzyme)
chain: MIIVSGQLLRPQDIENWQIDQNLNPLLKEMIETPVQFDYHSIAELMFELKLRMNIVAAAKTLHKSGAKFATFLKTYGNTTYWRVSPEGALELKYRMPPSKAIRDIAENGPFYAFECATAIVIIYYLALIDTIGEDKFNASFDRIILYDWHYEKLPIYTETGHHFFLGDCLYFKNPEFDPQKAQWRGENVILLGEDKYFAHGLGILNGKQIIDKLNSFRKKGALQSAYLLSQATRLDVPSLFR
